The text below walks through data of US20260355310A1, “TREATMENT OF IGA NEPHROPATHY USING AN ENDOTHELIN RECEPTOR ANTAGONIST AND APRIL BINDING ANTIBODY” (CHINOOK THERAPEUTICS, INC., priority 2022, published 2026).

The nature of data set [1]: Oxidation reduction potential. The data set is classed as physicochemical.
The subject of data set [2] is endothelin A (ETA) receptor. The following applies: cited from earlier work.
Data set [3] concerns the target ETB receptor. The following applies: Wu-Wong et al. 2002; cited from earlier work.
Data set [4] concerns patients with diabetic kidney disease (DKD). The following applies: Heerspink et al. 2019; cited from earlier work.
The test system of data set [5] is IgA nephropathy patients. The following applies: DAPA-CKD subanalysis; Wheeler et al. 2021; cited from earlier work.
The test system of data set [6] is human B cell maturation antigen (BCMA) / human APRIL. As to the kind of experiment: Blocking of APRIL binding to BCMA.
In data set [7] the test system is transmembrane activator and calcium modulator and cyclophilin ligand interactor (TACI) / human APRIL. As to the kind of experiment: Blocking of APRIL binding to TACI.
For data set [8], the system named is BAFF. As to the kind of experiment: Binding to BAFF. The following applies: BION-1301.
For data set [9], the system named is healthy human volunteers. As to the kind of experiment: Immunoglobulin levels in healthy volunteers. The data set is classed as in vivo. From the text:
(§1) A humanized APRIL antagonistic monoclonal antibody (anti-APRIL antibody, as described herein) is in development for the treatment of IgAN, having undergone clinical trials in healthy volunteers (see clinicaltrials.gov NCT03945318). […] In addition, this blockade reduced Gd-IgAQ1 in healthy human volunteers. Consequently, it is expected that blockade of APRIL in patients with IgAN will lead to a reduction in levels of IgA, IgG, and IgM and corresponding reductions in gd-IgA1, auto-antibodies to gd-IgA1, immune complex deposition and renal damage.

Data set [10] relates to healthy cynomolgus monkeys. Kind of data set: Immunoglobulin levels in healthy cynomolgus monkeys. The data set is classed as in vivo.
Source text: as §1

Data set [11] concerns patients with IgAN. Kind of data set: Phase 1/2 clinical study in patients with IgAN, interim results. The format is in vivo, human. From the text:
BION-1301 has been studied in adults with relapsed or refractory multiple myeloma as well as healthy volunteers (HVs) and adults with IgAN. Since the initiation of the BION-1301 clinical program through 26 Jul. 2022, a total of 153 adults have been enrolled in 5 clinical studies. […] Gd-IgA1, and proteinuria (as measured by areduction in UPCR).
BION-1301 has been studied in adults with relapsed or refractory multiple myeloma as well as healthy volunteers (HVs) and adults with IgAN. Since the initiation of the BION-1301 clinical program through 26 Jul. 2022, a total of 153 adults have been enrolled in 5 clinical studies.

Data set [12] concerns human B cell maturation antigen (BCMA) / human APRIL. The following applies: receptors on lymphocytes; Guadagnoli 2011; cited from earlier work.
For data set [13], the system named is transmembrane activator and calcium modulator and cyclophilin ligand interactor (TACI) / human APRIL. The following applies: receptors on lymphocytes; Guadagnoli 2011; cited from earlier work.
The mark [14] stands for this setting: IV 450 mg Q2W, patients with IgAN, interim results.
[15] abbreviates: SC 600 mg Q2W after at least 24 weeks of IV administration.

The Ki is a measure of affinity in units of concentration, obtained from inhibition or displacement. As for `CCCCN(CCCC)C(=O)CN1C[C@H](c2ccc3c(c2)OCO3)[C@@H](C(=O)O)[C@@H]1c1ccc(OC)cc1` [Atrasentan, (2R,3R,4S)-4-(1,3-benzodioxol-5-yl)-1-[2-(dibutylamino)-2-oxoethyl]-2-(4-methoxyphenyl)pyrrolidine-3-carboxylic acid], in data set [1], the oxidation reduction potential result was “about 900 mV”. Further, in [2] (ETA inhibitor, ETA relative to ETB, literature), the “selectivity for ETA relative to ETB” value is recorded as “about 1,860 times”. Besides, the ETA selectivity in [2] (ETA relative to ETB, Wu-Wong et al. 2002) is reported as ~ 1800 x. The Ki is ~0.034 nM in data set [2] (Wu-Wong et al. 2002) and ~63 nM in [3]. In addition, the “risk of renal events (doubling of serum creatinine or end-stage kidney disease)” value in data set [4] is recorded as “significantly reducing the risk of renal events”.

For `CCOc1ccc(Cc2cc([C@@H]3O[C@H](CO)[C@@H](O)[C@H](O)[C@H]3O)ccc2Cl)cc1` [dapagliflozin], the “safety and efficacy as addition to standard of care in IgA nephropathy” value in data set [5] was “may be a safe and effective addition to current standard of care in IgA nephropathy”.

B1: BION-1301: IgG4 humanized monoclonal antibody having CAS Registry No. 2642175-46-8; SEQ ID NO: 28 for the heavy chain and SEQ ID NO: 30 for the light chain (antibody, chains of the INN, looked up, V domains shown)
VH: QVQLVQSGAEVKKPGASVKVSCKASGYTFTDYTIHWVRQATGQGLEWMGWIYPLRGSINYAQKFQGRVTMTADKSISTVYMELSSLRSEDTAVYFCARHGAYYSNAFDYWGQGTLVTVSS
VL: EIVMTQSPATLSVSPGERATLSCRASESVDNDGIRFLHWYQQKPGQAPRLLIYRASTRATGIPARFSGSGSRTEFTLTISSLQSEDFAVYYCQQSNKDPYTFGGGTKVEIK
For the molecule B1, the “blocks binding of human APRIL to BCMA” value in [6] is “blocks the binding”. Besides, in [7], the “blocks binding of human APRIL to TACI” value is reported as “blocks the binding”. In addition, the “binding to BAFF” value in [8] was “does not bind BAFF”. For the same molecule, the Gd-IgA1 entry in [9] (healthy human volunteers) is “reduced”. Moreover, the “levels of IgA” value in data set [9] (healthy volunteers) is “significantly reduce the levels of IgA”. In data set [10], the IgA result was “significantly lower” and the IgM result is listed as “significantly lower”. Also, in [11] (setting [14]), the Gd-IgA1 entry was “sustained reductions”, the “free (unbound) APRIL” value is given as “sustained reductions”, the “proteinuria (as measured by reduction in UPCR)” value was “sustained reductions” and the tolerability result was “well-tolerated”. Further, in data set [11] (setting [15]), the “BION-1301 exposures after transition to SC dosing” value is “maintained similar BION-1301 exposures”; the “biomarker responses after transition to SC dosing” value is reported as “maintained similar BION-1301 exposures, biomarker responses”; the “proteinuria reductions after transition to SC dosing” value is “maintained similar BION-1301 exposures, biomarker responses and proteinuria reductions”. In addition, the “serum BION-1301 concentrations” value in data set [11] (following IV infusion, patients with IgAN vs healthy volunteers at same dose and schedule) is “appeared comparable to those observed in healthy volunteers at the same dose and schedule”. Besides, in data set [11] (patients treated with BION-1301, on average), the “24-hour UPCR” value was “reduction in 24-hour UPCR which was evident by 3 months and continue to decline beyond 1 year”. In [12], the “blocks interaction of APRIL with BCMA” value is reported as “effectively blocks”. Also, the “blocks interaction of APRIL with TACI” value in data set [13] is listed as “effectively blocks”.
